Values quoted from earlier work as cited in PMC9090500.
pKd: −log10 of the molar value.

Biological target: IL18 (Homo sapiens) (UniProt Q14116)
Sequence (Q14116 37-193): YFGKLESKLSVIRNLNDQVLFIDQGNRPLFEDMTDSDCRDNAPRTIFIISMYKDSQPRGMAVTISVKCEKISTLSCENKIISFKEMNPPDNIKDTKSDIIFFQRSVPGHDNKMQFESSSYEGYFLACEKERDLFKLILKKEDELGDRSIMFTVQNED

IL18BP, sequence (O95998 31-194): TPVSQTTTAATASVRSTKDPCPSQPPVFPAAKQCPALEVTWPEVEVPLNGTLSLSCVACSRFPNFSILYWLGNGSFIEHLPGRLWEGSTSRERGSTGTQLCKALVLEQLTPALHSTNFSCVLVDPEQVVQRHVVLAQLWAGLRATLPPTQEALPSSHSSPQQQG

IL18BP (from UniProt O95998)
pKd: 6.40
